In patent publication US20230257440A1 (published 2023):

Molecular target: T1, RAS G12V (KRAS, HRAS or NRAS) peptide on HLA-DRA*01:01 / HLA-DRB1*01:01 (human)
T1 peptide: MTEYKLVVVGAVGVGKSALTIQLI
Test: cytokine release
Method: FIG. 2 is a graph showing IFN-γ secretion (spots/3e4 cells) measured by ELISPOT assay following co-culture of effector cells with target cells. […] Target cells were […] or HEK 293 cells independently transfected with one of the HLA Class II heterodimers shown. The target cells were loaded with the G12V 24-mer peptide and were cultured in the presence or absence of an antibody which blocked the respective HLA Class II molecule previously transfected. Target cells cultured with DMSO served as a negative control.
Reactivity was tested by IFNγ-secretion using ELISpot assay. […] This reactivity was blocked by an antibody which recognized the DRA*01:01/DRB1*01:01 heterodimer.

binding result: recognises
B1: 4304 TCR1 (TCR, V domains shown)
Valpha: AQRVTQPEKLLSVFKGAPVELKCNYSYSGSPELFWYVQYSRQRLQLLLRHISRESIKGFTADLNKGETSFHLKKPFAQEEDSAMYYCALLQGAQKLVFGQGTRLTINP
Vbeta: SAVISQKPSRDICQRGTSLTIQCQVDSQVTMMFWYRQQPGQSLTLIATANQGSEATYESGFVIDKFPISRPNLTFSTLTVSNMSPEDSSIYLCSVESGQDYGYTFGSGTRLTVV
